Several values for one entry are separate records, joined by “and”; a condition that tells them apart may be missing. Equal entries are not always repeated.
Legend:
[1] = target: human 40S ribosomal subunit with the ybbR tag on uS19, Cy3-labelled (human (endogenous in HEK293T)) (UniProt P62841)
[2] = target: human 40S ribosomal subunit with the ybbR tag on RACK1, biotinylated or Cy5-labelled (human) (UniProt P63244)

Substance	fraction of recruited 40S subunits with which NSP1 coassociated [1]	Kd [2] [nM]	fraction of IRES–40S complexes bound at least once by NSP1 (≥∼5 s) [2] [%]	koff [2] [s⁻¹]
SARS-CoV-2 NSP1 with an N-terminal ybbR tag, fluorescently labelled (from UniProt P0DTD1 1-180) (natural protein)	57% and 60%			
SARS-CoV-2 NSP1(KH164-165AA) with an N-terminal ybbR tag, Cy3-labelled (from UniProt P0DTD1 1-180) (natural protein)		> 350	9	0.14
Bat-Hp-CoV NSP1 with an N-terminal ybbR tag, Cy3-labelled (natural protein)		< 1	89	< 0.002

— publication PMC8017934
